± gives the standard deviation of the averaged measurements.
B1: library; a variant is named by its letters at N, in order (parent)
chain: GCUGUCACCGGUGCUUGGUACGUUAUAUUCAGCCGGUCUGAUGAGUCUNNNNNNAGACGAAACAGC

Tests used:
(6R,S)-folinic acid [1] = variants of: B1; assay: FACS-Seq fitted mean relative fluorescence mCherry/BFP without ligand (log10 relative fluorescence); HEK293T overexpressing SLC46A1; higher = higher reporter protein expression; conditions: without (6R,S)-folinic acid; ligand present: no
Outline: (§1)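 The ribozyme switch sat in an mCherry reporter, delivered by lentivirus into HEK293T libraries along with an EF1α-BFP marker. Enriched cells were incubated 48 h with or without ligand, sorted into 6 bins by mCherry/BFP, and bin genomic DNA was PCR-amplified, barcoded and MiSeq-sequenced. Fluorescence equals the fitted normal mean of the bin counts after normalization. Those log10(mCherry/BFP) means were scaled to five spiked-in control ribozymes.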

(6R,S)-folinic acid [2] = variants of: B1; assay: normalized RNA/DNA level without ligand (relative to sTRSVctl = 100) (log10 (% of sTRSVctl)); HEK293T overexpressing SLC46A1; higher = less ribozyme self-cleavage, higher mRNA level; conditions: without (6R,S)-folinic acid; ligand present: no
Protocol: (§2)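 Hammerhead (sTRSV) ribozyme switch libraries with a ligand aptamer grafted on stem I and a randomized N4-6 loop II, cloned into the 3' UTR of mCherry and transiently transfected into HEK293T cells; RNA-Seq 72 h post transfection with ligand added 1 h before transfection; RNA read count / plasmid DNA read count normalized to the non-cleaving sTRSVctl (x100), log10; sequences with >100 DNA reads. FACS-Seq: lentiviral library sorted into 6 bins after 48 h ligand, log-normal fit mean of mCherry/BFP scaled to controls. Printed sequences are partial switch sequences.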

(6R,S)-folinic acid [3] = variants of: B1; assay: FACS-Seq fitted mean relative fluorescence mCherry/BFP with ligand (log10 relative fluorescence); HEK293T overexpressing SLC46A1; ligand concentration (+) FACS-Seq: 6 mM; higher = higher reporter protein expression; conditions: with (6R,S)-folinic acid; ligand present: yes
Outline: as §1

(6R,S)-folinic acid [4] = variants of: B1; assay: normalized RNA/DNA level with ligand (relative to sTRSVctl = 100) (log10 (% of sTRSVctl)); HEK293T overexpressing SLC46A1; ligand concentration (+) RNA-Seq: 6 mM; higher = less ribozyme self-cleavage, higher mRNA level; conditions: with (6R,S)-folinic acid; ligand present: yes
Protocol: as §2

GCUGUCACCGGUGCUUGGUACGUUAUAUUCAGCCGGUCUGAUGAGUCUACCGUUAGACGAAACAGC
FACS-Seq fitted mean (log10) ((6R,S)-folinic acid [1]): 0.123 ± 0.046
normalized RNA/DNA level without ligand (log10) ((6R,S)-folinic acid [2]): 2.008 ± 0.016
FACS-Seq fitted mean (log10) ((6R,S)-folinic acid [3]): -0.259 ± 0.15
normalized RNA/DNA level with ligand (log10) ((6R,S)-folinic acid [4]): 2.01 ± 0.038

GCUGUCACCGGUGCUUGGUACGUUAUAUUCAGCCGGUCUGAUGAGUCUGCCUUAAGACGAAACAGC
FACS-Seq fitted mean (log10) ((6R,S)-folinic acid [1]): 0.12 ± 0.15
normalized RNA/DNA level without ligand (log10) ((6R,S)-folinic acid [2]): 1.98 ± 0.027
FACS-Seq fitted mean (log10) ((6R,S)-folinic acid [3]): -0.0974 ± 0.14
normalized RNA/DNA level with ligand (log10) ((6R,S)-folinic acid [4]): 1.99 ± 0.037

GCUGUCACCGGUGCUUGGUACGUUAUAUUCAGCCGGUCUGAUGAGUCUACCUAGAGACGAAACAGC
FACS-Seq fitted mean (log10) ((6R,S)-folinic acid [1]): 0.3338 ± 0.0029
normalized RNA/DNA level without ligand (log10) ((6R,S)-folinic acid [2]): 1.956 ± 0.0051
FACS-Seq fitted mean (log10) ((6R,S)-folinic acid [3]): 0.37 ± 0.31
normalized RNA/DNA level with ligand (log10) ((6R,S)-folinic acid [4]): 2.02 ± 0.03

GCUGUCACCGGUGCUUGGUACGUUAUAUUCAGCCGGUCUGAUGAGUCUACCUAUAGACGAAACAGC
FACS-Seq fitted mean (log10) ((6R,S)-folinic acid [1]): 0.349 ± 0.089
normalized RNA/DNA level without ligand (log10) ((6R,S)-folinic acid [2]): 2.019 ± 0.018
FACS-Seq fitted mean (log10) ((6R,S)-folinic acid [3]): 0.644 ± 0.022
normalized RNA/DNA level with ligand (log10) ((6R,S)-folinic acid [4]): 2.05 ± 0.033

GCUGUCACCGGUGCUUGGUACGUUAUAUUCAGCCGGUCUGAUGAGUCUACGAAAAGACGAAACAGC
FACS-Seq fitted mean (log10) ((6R,S)-folinic acid [1]): 0.141 ± 0.013
normalized RNA/DNA level without ligand (log10) ((6R,S)-folinic acid [2]): 1.956 ± 0.0063
FACS-Seq fitted mean (log10) ((6R,S)-folinic acid [3]): -0.0169 ± 0.14
normalized RNA/DNA level with ligand (log10) ((6R,S)-folinic acid [4]): 2 ± 0.04

GCUGUCACCGGUGCUUGGUACGUUAUAUUCAGCCGGUCUGAUGAGUCUUCCGCGAGACGAAACAGC
FACS-Seq fitted mean (log10) ((6R,S)-folinic acid [1]): 0.277 ± 0.014
normalized RNA/DNA level without ligand (log10) ((6R,S)-folinic acid [2]): 1.842 ± 0.0081
FACS-Seq fitted mean (log10) ((6R,S)-folinic acid [3]): 0.502 ± 0.16
normalized RNA/DNA level with ligand (log10) ((6R,S)-folinic acid [4]): 1.96 ± 0.041

GCUGUCACCGGUGCUUGGUACGUUAUAUUCAGCCGGUCUGAUGAGUCUUCCGAGAGACGAAACAGC
FACS-Seq fitted mean (log10) ((6R,S)-folinic acid [1]): -0.0266 ± 0.13
normalized RNA/DNA level without ligand (log10) ((6R,S)-folinic acid [2]): 1.809 ± 0.011
FACS-Seq fitted mean (log10) ((6R,S)-folinic acid [3]): 0.131 ± 0.18
normalized RNA/DNA level with ligand (log10) ((6R,S)-folinic acid [4]): 1.9932 ± 0.0011

GCUGUCACCGGUGCUUGGUACGUUAUAUUCAGCCGGUCUGAUGAGUCUCCCGGUAGACGAAACAGC
FACS-Seq fitted mean (log10) ((6R,S)-folinic acid [1]): 0.139 ± 0.18
normalized RNA/DNA level without ligand (log10) ((6R,S)-folinic acid [2]): 2.023 ± 0.0033
FACS-Seq fitted mean (log10) ((6R,S)-folinic acid [3]): 0.0649 ± 0.052
normalized RNA/DNA level with ligand (log10) ((6R,S)-folinic acid [4]): 2.02 ± 0.029

GCUGUCACCGGUGCUUGGUACGUUAUAUUCAGCCGGUCUGAUGAGUCUCCCUUCAGACGAAACAGC
FACS-Seq fitted mean (log10) ((6R,S)-folinic acid [1]): 0.28 ± 0.13
normalized RNA/DNA level without ligand (log10) ((6R,S)-folinic acid [2]): 2.141 ± 0.0043
FACS-Seq fitted mean (log10) ((6R,S)-folinic acid [3]): 0.0122 ± 0.3
normalized RNA/DNA level with ligand (log10) ((6R,S)-folinic acid [4]): 2.05 ± 0.035

GCUGUCACCGGUGCUUGGUACGUUAUAUUCAGCCGGUCUGAUGAGUCUUCCUUGAGACGAAACAGC
FACS-Seq fitted mean (log10) ((6R,S)-folinic acid [1]): 0.0329 ± 0.028
normalized RNA/DNA level without ligand (log10) ((6R,S)-folinic acid [2]): 1.85 ± 0.021
FACS-Seq fitted mean (log10) ((6R,S)-folinic acid [3]): 0.189 ± 0.026
normalized RNA/DNA level with ligand (log10) ((6R,S)-folinic acid [4]): 1.99 ± 0.033

GCUGUCACCGGUGCUUGGUACGUUAUAUUCAGCCGGUCUGAUGAGUCUUCCGUGAGACGAAACAGC
FACS-Seq fitted mean (log10) ((6R,S)-folinic acid [1]): 0.0926 ± 0.016
normalized RNA/DNA level without ligand (log10) ((6R,S)-folinic acid [2]): 1.78 ± 0.029
FACS-Seq fitted mean (log10) ((6R,S)-folinic acid [3]): 0.562 ± 0.067
normalized RNA/DNA level with ligand (log10) ((6R,S)-folinic acid [4]): 1.98 ± 0.043

GCUGUCACCGGUGCUUGGUACGUUAUAUUCAGCCGGUCUGAUGAGUCUUCCGGGAGACGAAACAGC
FACS-Seq fitted mean (log10) ((6R,S)-folinic acid [1]): 0.446 ± 0.031
normalized RNA/DNA level without ligand (log10) ((6R,S)-folinic acid [2]): 2.02 ± 0.026
FACS-Seq fitted mean (log10) ((6R,S)-folinic acid [3]): 0.62 ± 0.13
normalized RNA/DNA level with ligand (log10) ((6R,S)-folinic acid [4]): 2.05 ± 0.031

GCUGUCACCGGUGCUUGGUACGUUAUAUUCAGCCGGUCUGAUGAGUCUGCCGAAAGACGAAACAGC
FACS-Seq fitted mean (log10) ((6R,S)-folinic acid [1]): 0.247 ± 0.078
normalized RNA/DNA level without ligand (log10) ((6R,S)-folinic acid [2]): 2.011 ± 0.0054
FACS-Seq fitted mean (log10) ((6R,S)-folinic acid [3]): 0.486 ± 0.16
normalized RNA/DNA level with ligand (log10) ((6R,S)-folinic acid [4]): 2.05 ± 0.022

GCUGUCACCGGUGCUUGGUACGUUAUAUUCAGCCGGUCUGAUGAGUCUGCCGAGAGACGAAACAGC
FACS-Seq fitted mean (log10) ((6R,S)-folinic acid [1]): 0.418 ± 0.066
normalized RNA/DNA level without ligand (log10) ((6R,S)-folinic acid [2]): 1.968 ± 0.005
FACS-Seq fitted mean (log10) ((6R,S)-folinic acid [3]): 0.538 ± 0.22
normalized RNA/DNA level with ligand (log10) ((6R,S)-folinic acid [4]): 2.016 ± 0.02

GCUGUCACCGGUGCUUGGUACGUUAUAUUCAGCCGGUCUGAUGAGUCUCCCUCAAGACGAAACAGC
FACS-Seq fitted mean (log10) ((6R,S)-folinic acid [1]): 0.596 ± 0.099
normalized RNA/DNA level without ligand (log10) ((6R,S)-folinic acid [2]): 2.0625 ± 0.0014
FACS-Seq fitted mean (log10) ((6R,S)-folinic acid [3]): 0.512 ± 0.32
normalized RNA/DNA level with ligand (log10) ((6R,S)-folinic acid [4]): 2.04 ± 0.038

GCUGUCACCGGUGCUUGGUACGUUAUAUUCAGCCGGUCUGAUGAGUCUACCGAGAGACGAAACAGC
FACS-Seq fitted mean (log10) ((6R,S)-folinic acid [1]): 0.326 ± 0.018
normalized RNA/DNA level without ligand (log10) ((6R,S)-folinic acid [2]): 1.893 ± 0.018
FACS-Seq fitted mean (log10) ((6R,S)-folinic acid [3]): 0.47 ± 0.072
normalized RNA/DNA level with ligand (log10) ((6R,S)-folinic acid [4]): 2.01 ± 0.024

GCUGUCACCGGUGCUUGGUACGUUAUAUUCAGCCGGUCUGAUGAGUCUACCGAAAGACGAAACAGC
FACS-Seq fitted mean (log10) ((6R,S)-folinic acid [1]): 0.0903 ± 0.11
normalized RNA/DNA level without ligand (log10) ((6R,S)-folinic acid [2]): 2.013 ± 0.0085
FACS-Seq fitted mean (log10) ((6R,S)-folinic acid [3]): -0.117 ± 0.18
normalized RNA/DNA level with ligand (log10) ((6R,S)-folinic acid [4]): 2.03 ± 0.043

GCUGUCACCGGUGCUUGGUACGUUAUAUUCAGCCGGUCUGAUGAGUCUGCGAACAGACGAAACAGC
FACS-Seq fitted mean (log10) ((6R,S)-folinic acid [1]): 0.252 ± 0.064
normalized RNA/DNA level without ligand (log10) ((6R,S)-folinic acid [2]): 1.951 ± 0.002
FACS-Seq fitted mean (log10) ((6R,S)-folinic acid [3]): 0.261 ± 0.15
normalized RNA/DNA level with ligand (log10) ((6R,S)-folinic acid [4]): 2.04 ± 0.027

GCUGUCACCGGUGCUUGGUACGUUAUAUUCAGCCGGUCUGAUGAGUCUGCGAAAAGACGAAACAGC
FACS-Seq fitted mean (log10) ((6R,S)-folinic acid [1]): 0.397 ± 0.13
normalized RNA/DNA level without ligand (log10) ((6R,S)-folinic acid [2]): 1.977 ± 0.0092
FACS-Seq fitted mean (log10) ((6R,S)-folinic acid [3]): 0.39 ± 0.054
normalized RNA/DNA level with ligand (log10) ((6R,S)-folinic acid [4]): 2.019 ± 0.017

GCUGUCACCGGUGCUUGGUACGUUAUAUUCAGCCGGUCUGAUGAGUCUCCCCUAAGACGAAACAGC
FACS-Seq fitted mean (log10) ((6R,S)-folinic acid [1]): 0.532 ± 0.01
normalized RNA/DNA level without ligand (log10) ((6R,S)-folinic acid [2]): 2.052 ± 0.0066
FACS-Seq fitted mean (log10) ((6R,S)-folinic acid [3]): 0.388 ± 0.34
normalized RNA/DNA level with ligand (log10) ((6R,S)-folinic acid [4]): 2.06 ± 0.034

GCUGUCACCGGUGCUUGGUACGUUAUAUUCAGCCGGUCUGAUGAGUCUCCCCUGAGACGAAACAGC
FACS-Seq fitted mean (log10) ((6R,S)-folinic acid [1]): 0.237 ± 0.046
normalized RNA/DNA level without ligand (log10) ((6R,S)-folinic acid [2]): 2.063 ± 0.0031
FACS-Seq fitted mean (log10) ((6R,S)-folinic acid [3]): 0.0558 ± 0.16
normalized RNA/DNA level with ligand (log10) ((6R,S)-folinic acid [4]): 2.053 ± 0.0049

— the supplement of paper PMC6757056
